Reference: PMC7536876 (bioRxiv, 2020)

Assays:
Assay in all cases: native MS
[1] = molecular target: HCoV-229E nsp7–8-His6 precursor (HCoV-229E) (UniProt P0C6X1)
[2] = molecular target: SARS-CoV nsp7–8-His6 precursor (SARS-CoV (strain Frankfurt-1)) (UniProt P0C6X7)
[3] = molecular target: PEDV nsp7–8-His6 precursor (PEDV (strain CV777)) (UniProt P0C6Y4)
native MS = molecular target: the molecule itself

Molecule: HCoV-229E nsp7–8-His6 precursor (from UniProt P0C6X1) (domain or fragment)
- stoichiometry N [1]: 2

Molecule: SARS-CoV nsp7–8-His6 precursor (from UniProt P0C6X7) (domain or fragment)
- stoichiometry N [2]: 2

Molecule: PEDV nsp7–8-His6 precursor (from UniProt P0C6Y4) (domain or fragment)
- stoichiometry N [3]: 2

B1: FIPV nsp7 (natural protein)
chain: SKLTEMKCTNVVLLGLLSKMHVESNSKEWNYCVGLHNEINLCDDPDAVLEKLLALIAFFLSKHNTCDLSDLIESYFENTTILQ
- stoichiometry N (native MS): 2

B2: PEDV nsp7 (natural protein)
chain: SKLTDIKCSNVVLLGCLSSMNVSANSTEWAYCVDLHNKINLCNDPEKAQEMLLALLAFFLSKNSAFGLDDLLESYFNDNSMLQ
- stoichiometry N (native MS): 2

B3: MERS-CoV nsp7 (natural protein)
chain: SKLTDLKCTSVVLLSVLQQLHLEANSRAWAFCVKCHNDILAATDPSEAFEKFVSLFATLMTFSGNVDLDALASDIFDTPSVLQ
- stoichiometry N (native MS): 2
